Data reported in patent US20210363269A1 (ALX ONCOLOGY, published 2021).
Positions count from the first letter of the chain named. Names and notes keep the numbering of the source.

T1: BALBc mouse SIRP-α (mouse (BALB/c strain))
T1 chain: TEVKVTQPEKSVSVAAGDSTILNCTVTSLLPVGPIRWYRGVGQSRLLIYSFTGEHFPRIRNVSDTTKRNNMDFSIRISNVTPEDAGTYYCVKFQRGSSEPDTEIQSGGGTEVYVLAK

T2: BL6 mouse SIRP-α (mouse (C57BL/6 strain), UniProt P97797 32-148)
T2 construct: also called C57BL/6
T2 sequence: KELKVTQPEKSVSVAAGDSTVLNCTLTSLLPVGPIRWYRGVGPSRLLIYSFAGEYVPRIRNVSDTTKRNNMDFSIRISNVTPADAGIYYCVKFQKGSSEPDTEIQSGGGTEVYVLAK

T3: NOD mouse SIRP-α (mouse (NOD strain))
T3 chain: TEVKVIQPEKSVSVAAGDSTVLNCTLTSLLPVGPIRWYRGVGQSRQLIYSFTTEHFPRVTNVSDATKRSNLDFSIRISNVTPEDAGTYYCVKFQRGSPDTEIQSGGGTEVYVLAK

T4: cynomolgus SIRP-α (cynomolgus monkey, UniProt Q5TFQ8 30-148 (human entry), limits assumed)
T4 construct: also called cyno1
T4 chain: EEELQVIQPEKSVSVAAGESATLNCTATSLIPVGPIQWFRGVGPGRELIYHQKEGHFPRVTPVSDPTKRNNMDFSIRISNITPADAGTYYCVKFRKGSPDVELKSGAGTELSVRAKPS

T5: cynomolgus SIRP-α D1 domain (SEQ ID NO:11) (cynomolgus, UniProt Q5TFQ8 30-148 (human entry), limits assumed)
T5 construct: also called cyno1
T5 chain: T4 chain

T6: mouse 129 SIRP-α (mouse (129 strain), UniProt P97797 32-150)
T6 construct: also called m129
T6 chain: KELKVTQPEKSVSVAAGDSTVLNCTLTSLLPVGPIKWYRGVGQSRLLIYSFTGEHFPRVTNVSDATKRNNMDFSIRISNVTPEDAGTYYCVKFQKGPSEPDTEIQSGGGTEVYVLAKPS

B1: antibody 136 variant, light chain wt / heavy chain Mut (antibody, V domains shown)
VH: EVQLVESGGGVVQPGRSLRLSCAASGFTFSSYDVNWVRQAPGKGLEWVSLISGSGEIIYYADSVKGRFTISRDNSKNTLYLQMNSLRAEDTAVYYCAKENNRYRFFDDWGQGTLVTVSS
VL: ETVLTQSPGTLTLSPGERATLTCRASQSVYTYLAWYQEKPGQAPRLLIYGASSRATGIPDRFSGSGSGTEFTLTISSLQSEDFAVYYCQQYYDRPPLTFGGGTKVEIK
B2: antibody 136 variant, light chain Mut_I2T / heavy chain Mut (antibody, V domains shown)
VH: B1 VH
VL: B1 VL with T12S, T22S, E38Q
B3: antibody 136 variant, light chain Mut_I2T / heavy chain Mut_V34M (antibody, V domains shown)
VH: B1 VH with V34M
VL: B1 VL with T12S, T22S, E38Q
B4: Hum8/AB21_HC_Mutall (antibody, V domains shown)
VH: EVQLVESGGGVVQPGGSLRLSCAASGFTFSSNAMSWVRQAPGKGLEWVAGISAGGSDTYYPASVKGRFTISRDNSKNTLYLQMNSLRAEDTAVYYCARETWNHLFDYWGQGTLVTVSS
VL: SYELTQPPSVSVSPGQTARITCSGGAYSSYYYAWYQQKPGQAPVLVIYSDSKRPSGIPERFSGSSSGTTVTLTISGVQAEDEADYYCGGYDQSSYTNPFGGGTKLTVL
notes: also called Hum8/AB21mutall
B5: antibody 135 variant wt/mut V34M (antibody, human IgG1, V domains shown)
VH: EVQLVESGGGVVQPGGSLRLSCAASGFSFSIYAMSWVRQAPGKGLEWVSTIGADDTYYADSVKGRFTISRDNSKNTLYLQMNSLRAEDTAVYYCAKDSTVGWSGDFFDYWGQGTLVTVSS
VL: EIVLTQSPATLSVSPGERVTFSCRASQNVRSDIAWYQQKPGQAPRLLIYAASSRDTGIPDRFSGSGSGTDFTLTISSLQSEDFGVYYCQQYYDWPPFTFGGGTKVEIK
notes: Human IgG1 with L234A/L235A/G237A/N297A; Labels are in the order VL/VH
B6: antibody 135 variant, light chain wt / heavy chain Mut_V34M (antibody, V domains shown)
VH: B5 VH
VL: B5 VL
B7: antibody 119 (antibody, V domains shown)
VH: B5 VH with E1D, V5L, I31N, Y32F, S35T, K43E, A53S, D54G, G101S, Q112L
VL: EIVLTQSPATLSVSPGERATFSCRASQNVKNDLAWYQQRPGQAPRLLIYAARIRETGIPERFSGSGSGTEFTLTITSLQSEDFAVYYCQQYYDWPPFTFGGGTKVEIK
notes: also called AB119; S119
B8: antibody 119 variant, light chain Mut / heavy chain Mut (antibody, V domains shown)
VH: B5 VH with V5L, I31N, Y32F, M34V, S35T, A53S, D54G, G101S
VL: B7 VL with F21L, R39K, E60A, T76S
B9: antibody 119 variant, light chain Mut / heavy chain Mut_V34M (antibody, V domains shown)
VH: B5 VH with V5L, I31N, Y32F, S35T, A53S, D54G, G101S
VL: B7 VL with F21L, R39K, E60A, T76S
B10: antibody 135 variant, light chain Mut / heavy chain Mut (antibody, V domains shown)
VH: B5 VH with M34V
VL: B5 VL with F21L, D60A

Tests used:
human SIRP-α v2 [1] = target: T7, human SIRP-α v2 (human); experiment: SPR, antibody on GLC chip
T7 construct: also called Human v2; Human V2
Method in brief: (§1)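 Protein A-purified antibodies were diluted to 80 nM in 10 mM sodium acetate pH 4.5 and amine-coupled (~1000 RU) to a GLC chip of a ProteOn XPR36 biosensor. SIRP analytes were injected one-shot at 100, 33, 11, 3.7, 1.2 and 0 nM in PBS pH 7.4 with 0.01% Tween-20 at 25° C. Association ran 90 s at 100 μL/min and dissociation 1200 s. KD came from double-referenced data fitted globally to a Langmuir model, as kd/ka.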

BALBc mouse SIRP-α [2] = target: T1, BALBc mouse SIRP-α; experiment: SPR, antibody on GLC chip
Method in brief: as §1

human SIRPγ isoform 1 = target: T8, human SIRPγ isoform 1 (human, UniProt Q9P1W8 29-147); experiment: SPR, antibody on GLC chip
T8 construct: also called Gamma; Human SIRPg
Method in brief: as §1

human SIRP-α v1 [3] = target: T9, human SIRP-α v1 (human, UniProt P78324 31-149); experiment: SPR, antibody on GLC chip
T9 construct: also called Human v1; Human V1
Method in brief: as §1

BL6 mouse SIRP-α = target: T2, BL6 mouse SIRP-α; experiment: SPR, antibody on GLC chip
Method in brief: as §1

NOD mouse SIRP-α [4] = target: T3, NOD mouse SIRP-α; experiment: SPR, antibody on GLC chip
Method in brief: as §1

human SIRPβ isoform 1 = target: T10, human SIRPβ isoform 1 (human, UniProt O00241 30-148); experiment: SPR, antibody on GLC chip
T10 construct: also called Beta; Human SIRPb
Method in brief: as §1

cynomolgus SIRP-α = target: T4, cynomolgus SIRP-α; experiment: SPR, antibody on GLC chip
Method in brief: as §1

BALBc mouse SIRP-α [5] = target: T1, BALBc mouse SIRP-α; experiment: SPR
Method in brief: (§2)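 Apparent association and dissociation rate constants, and KD as kd/ka, were obtained by global fitting of double-referenced data to a simple Langmuir model. Measurements used a ProteOn XPR36 biosensor at 25° C in PBS pH 7.4 with 0.01% Tween-20, with SIRP analytes injected in one-shot kinetic mode at nominal concentrations from A280 absorbance. The purified antibodies were either amine-coupled to a GLC chip or held on an NLC chip by biotinylated Protein A.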

human SIRP-α v1 [6] = target: T9, human SIRP-α v1; experiment: SPR
Method in brief: as §2

NOD mouse SIRP-α [7] = target: T3, NOD mouse SIRP-α; experiment: SPR
Method in brief: as §2

[8] = target: T5, cynomolgus SIRP-α D1 domain (SEQ ID …); experiment: SPR, antibody immobilised on GLC chip
Method: (§3) All experiments were performed at 25° C. using a SPR-based ProteOn XPR36 biosensor (BioRad, Inc, Hercules, Calif.) equipped with GLC or NLC sensor chips. […] Purification was carried out by standard Protein A affinity column chromatography and eluted antibodies were stored in PBS buffer.
(§4) For the method using GLC chip, the analytes were injected and flowed over anti-SIRPα antibodies immobilized (˜1000 RUs) on GLC chips using Proteon™ Amine Coupling Kit. For the immobilization step, GLC chip was activated with EDAC/Sulpho-NHS 1:1 (Biorad) diluted 1/100 for 300 s at 25 μL/min. Anti-SIRPα antibodies were diluted to 80 nM concentration in 10 mM sodium acetate buffer pH 4.5 and immobilized to the chip at 30 μL/min for 50 s. Chip was inactivated with ethanolamine for 300 s at 25 μL/min. The analytes (e.g., SIRP-α from different species, SIRP-β, SIRP-γ) were injected in a “one-shot” kinetic mode at nominal concentrations of 100, 33, 11, 3.7, 1.2 and 0 nM. Association times were monitored for 90 s at 100 μL/min, and dissociation times were monitored for 1200 s. The surfaces were regenerated with a 2:1 v/v blend of Pierce IgG elution buffer/4M NaCl.

[9] = target: T11, human SIRP-α v2 D1 domain (human); experiment: SPR, antibody immobilised on GLC chip
T11 construct: also called human v2; human α v2
Method: as §3, §4

[10] = target: T12, human SIRP-α v1 D1 domain (human, UniProt P78324 31-149); experiment: SPR, antibody immobilised on GLC chip
T12 construct: also called human v1; human α v1
Method: as §3, §4

human SIRP-α v2 [11] = target: T7, human SIRP-α v2; experiment: SPR
Method in brief: as §2

human SIRP-α v1 [12] = target: T9, human SIRP-α v1; experiment: SPR; remark: listed apart in the source
Method in brief: as §2

mouse 129 SIRP-α = target: T6, mouse 129 SIRP-α; experiment: SPR Koff +/-
Method in brief: as §2

T9 sequence (P78324 31-149 limits assumed): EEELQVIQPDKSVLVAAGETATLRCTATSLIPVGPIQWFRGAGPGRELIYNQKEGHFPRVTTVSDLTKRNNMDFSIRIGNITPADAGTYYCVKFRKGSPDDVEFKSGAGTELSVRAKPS
T8 sequence (Q9P1W8 29-147 limits assumed): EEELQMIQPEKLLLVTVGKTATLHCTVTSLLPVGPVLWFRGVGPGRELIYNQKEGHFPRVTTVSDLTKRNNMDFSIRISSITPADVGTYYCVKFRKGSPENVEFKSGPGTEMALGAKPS
T10 sequence (O00241 30-148 limits assumed): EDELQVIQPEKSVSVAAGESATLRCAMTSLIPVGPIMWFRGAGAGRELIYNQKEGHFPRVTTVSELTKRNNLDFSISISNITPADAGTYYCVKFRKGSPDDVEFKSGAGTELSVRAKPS
T7 sequence (chain, as listed by the source limits assumed): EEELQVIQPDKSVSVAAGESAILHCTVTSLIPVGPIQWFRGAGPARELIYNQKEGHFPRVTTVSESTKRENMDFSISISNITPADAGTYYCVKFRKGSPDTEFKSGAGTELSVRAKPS
T12 sequence (P78324 31-149 limits assumed): as the sequence (P78324 31-149 limits assumed) above
T11 sequence (chain, as listed by the source limits assumed): as the sequence (chain, as listed by the source limits assumed) above

| Binder | Kd (human SIRP-α v2 [1]) [nM] | Kd (BALBc mouse SIRP-α [2]) [nM] | Kd (human SIRPγ isoform 1) [nM] | Kd (human SIRP-α v1 [3]) [nM] | Kd (BL6 mouse SIRP-α) [nM] | Kd (NOD mouse SIRP-α [4]) [nM] | Kd (human SIRPβ isoform 1) [nM] | Kd (cynomolgus SIRP-α) [nM] | Kd (BALBc mouse SIRP-α [5]) [nM] | Kd (human SIRP-α v1 [6]) [nM] | Kd (NOD mouse SIRP-α [7]) [nM] | Kd [8] [nM] | Kd [9] [nM] | Kd [10] [nM] | binding result (BALBc mouse SIRP-α [2]) | binding result (BL6 mouse SIRP-α) | binding result (NOD mouse SIRP-α [4]) | Kd (human SIRP-α v2 [11]) [nM] | Kd (human SIRP-α v1 [12]) [nM] | binding result (mouse 129 SIRP-α) |
| --- | --- | --- | --- | --- | --- | --- | --- | --- | --- | --- | --- | --- | --- | --- | --- | --- | --- | --- | --- | --- |
| B1 | 1.74 | 0.416 | 16.5 | 0.558 | 23.1 | 0.678 | 3.54 |  |  |  |  |  |  |  |  |  |  |  |  |  |
| B2 | 1.86 | 0.422 | 40 | 0.717 | 15.3 | 0.68 | 3.16 |  |  |  |  |  |  |  |  |  |  |  |  |  |
| B3 | 1.74 | 0.361 | 33.5 | 0.551 | 13.8 | 0.596 | 2.22 | 2.11 |  |  |  |  |  |  |  |  |  |  |  |  |
| B4 |  |  |  |  |  |  |  |  | 71.2 | 0.0201 | 27.8 |  |  |  |  |  |  |  |  |  |
| B5 |  |  |  |  |  |  |  |  |  |  |  | 0.0794 | 0.0161 | 0.15 |  |  |  |  |  |  |
| B6 | 0.0161 |  | 0.533 | 0.15 |  |  | 0.16 | 0.0794 |  |  |  |  |  |  | no binding | no binding | no binding |  |  |  |
| B7 | 0.0682 |  | 0.267 | 0.183 |  |  | 0.342 | 0.112 |  |  |  |  |  |  | no binding | no binding |  | 0.0799 | 0.183 | no binding |
| B8 | 0.0875 |  | 0.336 | 0.317 |  |  | 0.46 | 0.195 |  |  |  |  |  |  | no binding | no binding | no binding |  |  |  |
| B9 | 0.0688 |  | 0.263 | 0.215 |  |  | 0.337 | 0.118 |  |  |  |  |  |  | no binding | no binding | no binding |  |  |  |
| B10 | 0.0175 |  | 0.733 | 0.192 |  |  | 0.188 | 0.127 |  |  |  |  |  |  | no binding | no binding | no binding |  |  |  |
